Measurements from paper PMC12291137.

What was measured:
[1] = molecular target: substrate B with the designed M13 variant M13-2 (SpyCatcher-M13-2-LPETG-SpyTag(DA)); assay: ITC; CaM (200 μM) titrated into B or P (18 μM); the paper calls K_a(c) an apparent binding constant
[2] = molecular target: substrate B with the designed M13 variant M13-3 (SpyCatcher-M13-3-LPETG-SpyTag(DA)); assay: as above
[3] = molecular target: substrate B (SpyCatcher-M13-LPETG-SpyTag(DA)), with the original M13 (M13-1); assay: kinetics of the covalent SpyTag-SpyCatcher reaction by SDS-PAGE densitometry + LC-MS of the product; A and B mixed 1:1 (10 μM each) with 0.1 equiv of SrtA or C, Tris-HCl buffer, pH 8.0, 10 mM CaCl2, 37 °C

Substance: calmodulin (CaM) (from UniProt P0DP23 1-149) (natural protein)
- Ka [1]: 20000 M⁻¹
- Ka [2]: < 100 M⁻¹

Substance: substrate A (GGG-SpyTag-YFP)
- k AB(c), second-order rate constant of the covalent SpyTag-SpyCatcher reaction in the catalyzed cascade (with C) [3]: 90 M^–1 s^–1
- k AB(s), second-order rate constant of the covalent SpyTag-SpyCatcher reaction in the spontaneous cascade (with SrtA) [3]: 67 M^–1 s^–1
